Data published in the supplement of paper PMC10567573.

B1: WDR41 (parent)
chain: HVGELIIWDALDWTMQAYERNFWD

Variants of: B1
Test: protein stability index of a GFP-peptide fusion (GPS, HEK-293T) (PSI 1-6); higher = more stable
Conditions: c terminus: a fixed tail appended
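Also: lentivirally expressed fusions sorted by FACS into six bins by GFP to DsRed ratio, PSI derived from sequencing read proportions per bin multiplied by bin number.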

Row | Variant | protein stability index
1 | HVGELIIWDALDWTMQAYEREFWD [N21E] | 2.14
2 | HVGELIIWDALDWTMQAYERSFWD [N21S] | 2.11
3 | HVGELIIWDALDWTMQAYERMFWD [N21M] | 3.52
4 | HVGELIIWDALDWTMQAYERQFWD [N21Q] | 2.87
5 | HVGELIIWDALDWTMQAYERLFWD [N21L] | 3
6 | HVGELIIWDALDWTMQAYERIFWD [N21I] | 2.9
7 | HVGELIIWDALDWTMQAYERTFWD [N21T] | 2.15
8 | HVGELTIWDALDWTMQAYERNFWD [I6T] | 1.87
9 | HVGELKIWDALDWTMQAYERNFWD [I6K] | 2.75
10 | HVGELYIWDALDWTMQAYERNFWD [I6Y] | 2.39
11 | HVGELDIWDALDWTMQAYERNFWD [I6D] | 1.81
12 | HVGELRIWDALDWTMQAYERNFWD [I6R] | 1.55
13 | HVGELQIWDALDWTMQAYERNFWD [I6Q] | 1.62
14 | HVGELEIWDALDWTMQAYERNFWD [I6E] | 1.36
15 | HVGELAIWDALDWTMQAYERNFWD [I6A] | 1.75
16 | HVGELMIWDALDWTMQAYERNFWD [I6M] | 2.35
17 | HVGELWIWDALDWTMQAYERNFWD [I6W] | 2.51
18 | HVGELIIWDALDWTMQIYERNFWD [A17I] | 1.15
19 | HVGELIIWDALDWTMQEYERNFWD [A17E] | 2.26
20 | HVGELIIWDALDWTMQPYERNFWD [A17P] | 1.76
21 | HVGELIIWDALDWTMQHYERNFWD [A17H] | 1.63
22 | HVGELIIWDALDWTMQCYERNFWD [A17C] | 2.5
23 | HVGELIIWDALDWTMQNYERNFWD [A17N] | 4.42
24 | HVGELIIWDALDWTMQFYERNFWD [A17F] | 3.37

Row | Variant | protein stability index
25 | HVGELIIWDALDWTMQGYERNFWD [A17G] | 1.81
26 | HVGELISWDALDWTMQAYERNFWD [I7S] | 2.33
27 | HVGELIPWDALDWTMQAYERNFWD [I7P] | 2.87
28 | HVGELIAWDALDWTMQAYERNFWD [I7A] | 1.87
29 | HVGELIRWDALDWTMQAYERNFWD [I7R] | 1.99
30 | HVGELINWDALDWTMQAYERNFWD [I7N] | 2.19
31 | HVGELIWWDALDWTMQAYERNFWD [I7W] | 2.44
32 | HVGELIYWDALDWTMQAYERNFWD [I7Y] | 2.71
33 | HVGELIKWDALDWTMQAYERNFWD [I7K] | 1.96
34 | HVGELIHWDALDWTMQAYERNFWD [I7H] | 2.17
35 | HVGELIDWDALDWTMQAYERNFWD [I7D] | 2.07
36 | HVGELICWDALDWTMQAYERNFWD [I7C] | 1.26
37 | HVGELILWDALDWTMQAYERNFWD [I7L] | 1.93
38 | HVGELIVWDALDWTMQAYERNFWD [I7V] | 1.59
39 | HVGELIILDALDWTMQAYERNFWD [W8L] | 3.77
40 | HVGELIIRDALDWTMQAYERNFWD [W8R] | 2.78
41 | HVGELIIHDALDWTMQAYERNFWD [W8H] | 1.61
42 | HVGELIICDALDWTMQAYERNFWD [W8C] | 1.88
43 | HVGELIISDALDWTMQAYERNFWD [W8S] | 1.51
44 | HVGELIIQDALDWTMQAYERNFWD [W8Q] | 1.98
45 | HVGELIIADALDWTMQAYERNFWD [W8A] | 2.8
46 | HVGELIINDALDWTMQAYERNFWD [W8N] | 1.3
47 | HVGELIIIDALDWTMQAYERNFWD [W8I] | 2.39
48 | HVGELIIVDALDWTMQAYERNFWD [W8V] | 2.29

Row | Variant | protein stability index
49 | HVGELIITDALDWTMQAYERNFWD [W8T] | 1.28
50 | HVGELIIKDALDWTMQAYERNFWD [W8K] | 1.67
51 | HVGELIIGDALDWTMQAYERNFWD [W8G] | 2.89
52 | HVQELIIWDALDWTMQAYERNFWD [G3Q] | 2.54
53 | HVRELIIWDALDWTMQAYERNFWD [G3R] | 1.87
54 | HVSELIIWDALDWTMQAYERNFWD [G3S] | 1.84
55 | HVVELIIWDALDWTMQAYERNFWD [G3V] | 4.45
56 | HVEELIIWDALDWTMQAYERNFWD [G3E] | 1.87
57 | HVLELIIWDALDWTMQAYERNFWD [G3L] | 1.72
58 | HVNELIIWDALDWTMQAYERNFWD [G3N] | 1.89
59 | HVHELIIWDALDWTMQAYERNFWD [G3H] | 2.49
60 | HVKELIIWDALDWTMQAYERNFWD [G3K] | 2.06
61 | HVGELIIWDALPWTMQAYERNFWD [D12P] | 2.1
62 | HVGELIIWDALKWTMQAYERNFWD [D12K] | 2.15
63 | HVGELIIWDALYWTMQAYERNFWD [D12Y] | 1.11
64 | HVGELIIWLALDWTMQAYERNFWD [D9L] | 1.54
65 | HVGELIIWRALDWTMQAYERNFWD [D9R] | 2.69
66 | HVGELIIWTALDWTMQAYERNFWD [D9T] | 3.42
67 | HVGELIIWPALDWTMQAYERNFWD [D9P] | 3.61
68 | HVGELIIWMALDWTMQAYERNFWD [D9M] | 3
69 | HVGELIIWKALDWTMQAYERNFWD [D9K] | 2.07
70 | HVGELIIWFALDWTMQAYERNFWD [D9F] | 2.57
71 | HVGELIIWDALDWYMQAYERNFWD [T14Y] | 4.99
72 | HVGELIIWDALDWSMQAYERNFWD [T14S] | 1.24

Row | Variant | protein stability index
73 | HVGELIIWDALDWNMQAYERNFWD [T14N] | 1.42
74 | HVGELIIWDALDWKMQAYERNFWD [T14K] | 2.31
75 | HVGELIIWDALDWQMQAYERNFWD [T14Q] | 1.38
76 | HVGELIIWDALDWPMQAYERNFWD [T14P] | 2.28
77 | HVGELIIWDALDWDMQAYERNFWD [T14D] | 1.68
78 | HVGELIIWDALDWGMQAYERNFWD [T14G] | 2.08
79 | HVGELIIWDALDWTMQAYERNPWD [F22P] | 1.75
80 | HVGELIIWDALDWTMQAYERNMWD [F22M] | 2.71
81 | HVGELIIWDALDWTMQAYERNTWD [F22T] | 3.49
82 | HVGELIIWDALDWTMQAYERNGWD [F22G] | 2.8
83 | HVGELIIWDALDWTMQAYERNWWD [F22W] | 1.74
84 | HVGELIIWDATDWTMQAYERNFWD [L11T] | 1.46
85 | HVGELIIWDANDWTMQAYERNFWD [L11N] | 2.23
86 | HVGELIIWDAIDWTMQAYERNFWD [L11I] | 3.82
87 | HVGELIIWDADDWTMQAYERNFWD [L11D] | 1.77
88 | HVGELIIWDAKDWTMQAYERNFWD [L11K] | 2.67
89 | HVGELIIWDAHDWTMQAYERNFWD [L11H] | 2.06
90 | HVGELIIWDAYDWTMQAYERNFWD [L11Y] | 2.08
91 | HVGELIIWDACDWTMQAYERNFWD [L11C] | 2.2
92 | HVGELIIWDAADWTMQAYERNFWD [L11A] | 1.61
93 | HVGELIIWDAVDWTMQAYERNFWD [L11V] | 3.1
94 | HVGELIIWDALDWTMGAYERNFWD [Q16G] | 1.78
